From the nanobody polyreactivity screen of Harvey et al. (2022)

assay: yeast display, Sf9 membrane polyspecificity reagent, FACS + sequencing; frameworks hold sequencing errors
Method in brief: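 Polyreactivity labels are assigned by the sorting gate from which each nanobody was recovered. The gates were low and high (top ~1%), set on anti-HA fluorescence for expression and streptavidin fluorescence for reagent binding. Before sorting, galactose-induced (36–48 hours) yeast display cells were stained for 1 hour at 4 °C with 10% biotinylated, detergent-solubilized Sf9 membrane reagent.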

Sequence | polyreactivity (PSR sort gate)
QVQLVESGGGLVQAGGSLRLTCAASGFIFGTYAMGWYRLSPGKERELVAAISSGGSTYYAYSVKGRFTISRDNAKYTVYLQMNSLKPEDTAVYYCAKEGGTYRIFNYWGQGTQVTLSS | low polyreactivity
QVQLVESGGGLVQAGGSLRLTCAASGFIFRKYTMGWYRQAPGKERELVATLDSSGGSTYYADSVKGRFTISRDNAKNTVYLQMNSLKPEDTAVYYCNADLRELSPWYWYSGEMDYWGQGTQVTVSS | low polyreactivity
QVQLVESGGGLVQAGGSLRLTCAASGFIFRSYAMGWYRQAPGKERELVAVISRRGVNTHYADSVKGRFTISRDNAKNTVYLQMNSLKPEDTAVYYCAKGLTALGDYWGQGTQVTVSS | high polyreactivity
QVQLVESGGGLVQAGGSLRLTCAASGFIFSKNAMGWYRQPPGKERELVAAIDTSGSSTYYAYSVKGRFTISRDNAKNSVYLQMISLKPEDTAVYYCNRDDYFFSRFDYWGQGTQVTVTS | low polyreactivity
QVQLVESGGGLVQAGGSLRLTCAASGFIFVRNAMGWYRQAPGKERDLVAAISSRGGRTYYADSVKGRFTISRDNAKYTVYLQMNRLKPEDTAVYYCNADRDTQGDGYDYWGQGTQVTVSS | high polyreactivity
QVQLVESGGGLVQAGGSLRLTCAASGFTFFVYAMGWYRQAPGKERELVASITFRSGTTYYADSVKGRFTISRDNAKNTVYLQMNSLKPEDTAVYYCAADSRRSSRGYGYYYWGQGTQVTVSS | high polyreactivity
QVQLVESGGGLVQAGGSLRLTCAASGFTFHVNTMGWYRQAPGKEMELVAAISWSGGSTYYADSVKGRFTISRDTAKKTVYLQMNSLNPEDTAVYYCNAVPVSYRGVYWGQGTQVTVSS | low polyreactivity
QVQLVESGGGLVQAGGSLRLTCAASGFTFRSYAMGWYRQAPGKEREWVAVISSSGGSTYYADSVKARFTISRDNAKNTVYLQMNSLKPEDTAVYYCNRRPATRAYLYDYWGQGTQVTGSS | high polyreactivity
QVQLVESGGGLVQAGGSLRLTCAASGFTFSYYTMGRYRQAPGKERELVAAISSGGSTYYADSVKGRFTISRDNAKNSVYLQMNSLKPEDTAVYYCNAYYGSYSPANGEYWGQGTQVTVSS | high polyreactivity
QVQLVESGGGLVQAGGSLRLTCAASGFTFYRYDMGWYRQAPGKERELVAAITNNGGNTYYADSVKGRFTISRDNAKNTVYLQMNSLKPDVTAVYYCATKRYYWRGYWGQGTQVSVSS | high polyreactivity
QVQLVESGGGLVQAGGSLRLTCAASGFTIYLYTMGWYRQAPGKERELVATISWSGGSTYYADSVKGRFTISRDNAKNTVYLHMNSLKPEDTAVYYCAKAYNGRYTWRYDYWGQGTQVTVSS | high polyreactivity
QVQLVESGGGLVQAGGSLRLTCAASGGTFDRNAMGWYRQAPGKERELVATITRRAGNTYYAYSVKGRFTISRDNAKNTVYLQMNSLKPEDTAVYYFAAYPLRSRRYYYWGQGTQVTVSS | high polyreactivity
QVQLVESGGGLVQAGGSLRLTCAASGGTFQVNAMGWYRQAPGKEMELVAAINRSGGGTTYADSVKGRFTISRDNAKNTVYLQMNSLKPEDTAVYYCAVDFYTYYYVEYGYWGQGTEVTVSS | high polyreactivity
QVQLVESGGGLVQAGGSLRLTCAASGIIFASNAMGWYRQAPGKEMELVATINWTDSSTYYADSVKGRFTISRDNAKNTVYLQMNSLKPEDTAVYYCNGVPHWFYRYGRYDYWGQGSQVTVSS | low polyreactivity
QVQLVESGGGLVQAGGSLRLTCAASGIIFLDYVMGWYRQAPGKERELVAAINSGGSTYYADSVKGRFTISRDNAKNTVYLQMNSLKPEDTAVYYCAAVDYYKFDYWGQVTQVTVSS | low polyreactivity
QVQLVESGGGLVQAGGSLRLTCAASGIIFQRNTMGWYRQAPGKERELVAAITSRGGRTYYADSVKGRFTISRDNAKNTVYLQMNSLKPEDTAVYYCAALLYFYSRPYGYWGQGTQVTVSS | high polyreactivity
QVQLVESGGGLVQAGGSLRLTCAASGIIFRFYGMGWYRQEPGKEREFVAAISGGGGSTYYADSVKGRFTISRDNAKKTVYLQMNSLKPEDTAVYYCARYTYRSAFEYWGQGTQVTVSS | high polyreactivity
QVQLVESGGGLVQAGGSLRLTCAASGIIFRGYAMGWYRQPPGKERELVAGITSGVRTYYADSVKGRFTISRDNAKNTVYLQMTSLKPEDTAVYYSNADAYGDDWKIYDYWGQGTQVTVSS | low polyreactivity
QVQLVESGGGLVQAGGSLRLTCAASGIIFYPYAMGWYRQAPGKERELVAAISIGGGSTYYADSVKGRFTISRDNAKNTVYLQMNSLKPEDTAVYYCAAGTPYGILGYYYWGQGTQVTVSS | low polyreactivity
QVQLVESGGGLVQAGGSLRLTCAASGITFKYYAMGWYRQAPGKERELVAAIRGSGGGTNYADSVKGRFTISRDNAMNTVYLQMNSLKQEDSAVYYCAAANWRRNDYRYRFDYWGQGTQVTVSS | high polyreactivity
QVQLVESGGGLVQAGGSLRLTCAASGITFRKYAMGWYRQAPGKERELVAGIRYSGSSTYYADSVKGRFTISRDNAKNTVYLQMNSLKPEDTAVYYGATGGYVWYRSVNVWTRMDYWGQGTQVTVSS | high polyreactivity
QVQLVESGGGLVQAGGSLRLTCAASGITFYYYAMGWYRQAPAKERELVAAISFRGGSTYYADSVKARFTISRDNPKNTFYLQMNSLNPEDTAVYYCASVTSPSWYTWVTYDYWGQGTQVTVSS | high polyreactivity

Sequence | polyreactivity (PSR sort gate)
QVQLVESGGGLVQAGGSLRLTCAASGITLLYNAMGWYRQAPGKESELVAGITGRGGSTYYADSVKGRFTISRDNAKNTVYLQMNSLKPEDTAVYYCAATTDYRYVGRIVIRDEHWGQGTQVTVSS | low polyreactivity
QVQLVESGGGLVQAGGSLRLTCAASGITLYNYAMGWYRQAPGKERELVAAISLSGGRTYYADSVKGRFTISRDNAKNTVYLQMNSLKPEDTAVYYCAADWLNSDPYNYWGQGTQVTVSS | low polyreactivity
QVQLVESGGGLVQAGGSLRLTCAASGLFYAMGWYRQAPGKQRELVAAISSVGSTNYADSVKGRFTISRDNAKNTVYLQMNSLKPEDTAVYYCAAYFYTYPVDRYGSYYWGQGTQLTVSS | low polyreactivity
QVQLVESGGGLVQAGGSLRLTCAASGLIFRPYTMGWYRQAPGKERELVATISGSGASTNYADSVKGRFTNSRDNAKNTVYFQMNSLKPEDTSVYYCKGRSYSRMYYWGQGTQVTVSS | high polyreactivity
QVQLVESGGGLVQAGGSLRLTCAASGLTFAGYAMGWYRQAPGKERELVAYITTSGGSTHYADSVKGRFTISRDNAKNTVYLQMNSLKPEDTAVYYCAAEGYPGDNELIGAFDYWGQGTQVTVSS | low polyreactivity
QVQLVESGGGLVQAGGSLRLTCAASGLTFGFNAMGWYRQAPGKERELVAAISSRGGSTYYADSVKGRFTISRDNAKNTVYLQMNSLKPEDTAVYYCAVRYYSPYGYWGQGTQVTVSS | low polyreactivity
QVQLVESGGGLVQAGGSLRLTCAASGLTFGGNAMGWYRQAHRKERELVAAISWSDDTTDYADSVKGRFTISRDNAKNSVYLQMNSLNPEDTAIYYCAARLPFEHVDYWGQGTQVTVSS | low polyreactivity
QVQLVESGGGLVQAGGSLRLTCAASGLTFTYYAMGWYRQAPGKERELVAAISASGGNTYYADSVKGRFTISRDNAKNTVYLQMNSLKPEDTAVFYCAAESSIYRGYGYSGQGTQVTVSS | high polyreactivity
QVQLVESGGGLVQAGGSLRLTCAASGNIFYTYAMGWYRQPPGKERELVAGLSSDGSTTYADSVKGRFTISRDNAKNTVYLQMNSLNPEDTAVYYCPADITGILWYGYYYWGQGTQVTVSS | low polyreactivity
QVQLVESGGGLVQAGGSLRLTCAASGNTFSPNAMGWYRHAPGKERELVAAIDSRDGITYYADSVKGRFTISRDNAKNTVYLQMNSLKPEDTAVYYCAADEWYGESNFWGQGTQVTVSS | low polyreactivity
QVQLVESGGGLVQAGGSLRLTCAASGNTFWDNAMRWYRQAPGKERELVAAIRWSTGSTHYADSVKGRFTISRDNAKNTVYLQMNSLKPEDTAVYDCAATDYYYYRDKYYGYVYWGQGTHVTVSS | low polyreactivity
QVQLVESGGGLVQAGGSLRLTCAASGNTFYGKTIGWYRQAPGKERELVAAIRFTGGSTTYADSVKGRFTISRDNAKITVYLQLNRLKPEDTAVYYCNTVWVSFSSIYHEYDYWGQGTQVTVSS | low polyreactivity
QVQLVESGGGLVQAGGSLRLTCAASGRIFAVYAMGWYRQAPGKERELVATISSSGSTHYADSVKGRFTISRDNAKNTVYLQMNSLKPEDTAVYYCNAGGSELKLGHDYWGQGTQVTVSS | low polyreactivity
QVQLVESGGGLVQAGGSLRLTCAASGRIFGYYAKGWYSQAPGKERELGATITFGGGSTCYADSVKGRFTISRDNAKKTVYLQMNSLKPEDTAVYYCAADSGYLGIYGDEYSWGQGTQVTVSS | low polyreactivity
QVQLVESGGGLVQAGGSLRLTCAASGRIFIYNTMGWYRQAPGTERELVATISSGGRTYYADSVKGRFTISRDNAKNTVYFQMNSLKPEDTAVYYCNARRRYYSVWRGWDNELDYWGQGTQVTVSS | high polyreactivity
QVQLVESGGGLVQAGGSLRLTCAASGRIFKQYAMGWYRQAPGKEMELVATISSGGDTNYADSVKGRFTISRDNAKNTVYLQMNSLKPEDTAVYFCAAGDIYYAEYEYWGKGTQVTVSS | low polyreactivity
QVQLVESGGGLVQAGGSLRLTCAASGRIFSFNAMVSYRKATGKERELVATIRTDGTTNYADSVKGRFTISRDNAKNTVYLQMNSMKPEDTAVYYCATDSGWSTYDFWGQGTQVTVSS | high polyreactivity
QVQLVESGGGLVQAGGSLRLTCAASGRIFSNDKGWYRQAPGKERELVAAITWSGGTTHYADSVKGRFTISRDNAKNTVYLQMNSLKPEDTAVYYCARAGGHAYSYWGQGTQVTVSS | low polyreactivity
QVQLVESGGGLVQAGGSLRLTCAASGRIFSRYAMGWYRQAPGKERELVASITRGGSTYADSVKGRFTISRDNAKNTVYLQMNSLKPEDTAVYYCNATYFTRYRQYDYWGQGTQVTVSS | low polyreactivity
QVQLVESGGGLVQAGGSLRLTCAASGRIFTRYSMGWYRKAPGKEREFVAAITNSGASTYYADSVKGRFTISRDNAKITVYLQMNSLKPEDTAVYYCAGDGPYWWDYDYWGQGTQETVSS | high polyreactivity
QVQLVESGGGLVQAGGSLRLTCAASGRIFVKNAMGWYRQAPGKERELVATICSGGNTNYADSVKGRFTISRDNAKNTVYLQMNSLKPEDTAVYYCAAVWDLGDYELPYDYWGLGTQVTVSS | low polyreactivity
